This is an account of results in patent US20240164355.

The series has as its target Ubiquitin-AMC (Ub-AMC) (UniProt P0CG48).

In the case of CidB* (CidB-C1025A catalytic mutant), the Ub-AMC hydrolysis entry is “The CidB-C1025A catalytic mutant was inactive against Ub-AMC (data not shown)”.
